B1: CDC25A (parent)
chain: KKFRTKSRTWAGEKSKREMYSRLK

Variants of: B1
Assay: protein stability index of a GFP-peptide fusion (GPS, HEK-293T) (PSI 1-6); higher = more stable
Conditions: c terminus: a fixed tail appended
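Also: lentivirally expressed fusions sorted by FACS into six bins by GFP to DsRed ratio, PSI derived from sequencing read proportions per bin multiplied by bin number.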

Row | Variant | protein stability index
1 | KKFRTKSRTWHGEKSKREMYSRLK [A11H] | 3.01
2 | KKFRTKSRTWFGEKSKREMYSRLK [A11F] | 2.62
3 | KKFRTKSRTWGGEKSKREMYSRLK [A11G] | 3.2
4 | KKFRTKSRTWIGEKSKREMYSRLK [A11I] | 2.77
5 | KKFRTKSRTWEGEKSKREMYSRLK [A11E] | 2.81
6 | KKFRTKSRTWCGEKSKREMYSRLK [A11C] | 2.73
7 | KKFRTKSRTWDGEKSKREMYSRLK [A11D] | 2.92
8 | KKFRTKFRTWAGEKSKREMYSRLK [S7F] | 2.4
9 | KKFRTKVRTWAGEKSKREMYSRLK [S7V] | 2.01
10 | KKFRTKCRTWAGEKSKREMYSRLK [S7C] | 2.39
11 | KKFRTKNRTWAGEKSKREMYSRLK [S7N] | 3.17
12 | KKFRTKARTWAGEKSKREMYSRLK [S7A] | 3.3
13 | KKFRTKIRTWAGEKSKREMYSRLK [S7I] | 2.9
14 | KKFRTKRRTWAGEKSKREMYSRLK [S7R] | 3.57
15 | KKFRTKKRTWAGEKSKREMYSRLK [S7K] | 3.11
16 | KKFRTKPRTWAGEKSKREMYSRLK [S7P] | 3.13
17 | KKFRTKGRTWAGEKSKREMYSRLK [S7G] | 2.78
18 | KKFRTKMRTWAGEKSKREMYSRLK [S7M] | 2.42
19 | KKFRTKDRTWAGEKSKREMYSRLK [S7D] | 3.24
20 | KKFRTKHRTWAGEKSKREMYSRLK [S7H] | 3.51
21 | KKFRTKQRTWAGEKSKREMYSRLK [S7Q] | 2.39
22 | KKFRTKWRTWAGEKSKREMYSRLK [S7W] | 3.06
23 | KKFRTKERTWAGEKSKREMYSRLK [S7E] | 2.92
24 | KKFRTKSATWAGEKSKREMYSRLK [R8A] | 3.48

Row | Variant | protein stability index
25 | KKFRTKSFTWAGEKSKREMYSRLK [R8F] | 2.88
26 | KKFRTKSSTWAGEKSKREMYSRLK [R8S] | 2.7
27 | KKFRTKSDTWAGEKSKREMYSRLK [R8D] | 3.57
28 | KKFRTKSVTWAGEKSKREMYSRLK [R8V] | 3.32
29 | KKFRTKSQTWAGEKSKREMYSRLK [R8Q] | 3.37
30 | KKFRTKSKTWAGEKSKREMYSRLK [R8K] | 3.31
31 | KKFRTKSWTWAGEKSKREMYSRLK [R8W] | 4.2
32 | KKFRTKSHTWAGEKSKREMYSRLK [R8H] | 2.84
33 | KKFRTKSYTWAGEKSKREMYSRLK [R8Y] | 4.25
34 | KKFRTKSLTWAGEKSKREMYSRLK [R8L] | 3.86
35 | KKFRTKSPTWAGEKSKREMYSRLK [R8P] | 3.21
36 | KKFRTKSNTWAGEKSKREMYSRLK [R8N] | 3.38
37 | KKFRTKSITWAGEKSKREMYSRLK [R8I] | 3.39
38 | KKFRTKSMTWAGEKSKREMYSRLK [R8M] | 2.25
39 | KKFRTKSTTWAGEKSKREMYSRLK [R8T] | 2.95
40 | KKFRTKSETWAGEKSKREMYSRLK [R8E] | 4.16
41 | KKFRTKSRTYAGEKSKREMYSRLK [W10Y] | 3.14
42 | KKFRTKSRTVAGEKSKREMYSRLK [W10V] | 3.9
43 | KKFRTKSRTNAGEKSKREMYSRLK [W10N] | 3.6
44 | KKFRTKSRTTAGEKSKREMYSRLK [W10T] | 3.56
45 | KKFRTKSRTIAGEKSKREMYSRLK [W10I] | 2.97
46 | KKFRTKSRTSAGEKSKREMYSRLK [W10S] | 2.79
47 | KKFRTKSRTAAGEKSKREMYSRLK [W10A] | 3.89
48 | KKFRTKSRTCAGEKSKREMYSRLK [W10C] | 4.02

Row | Variant | protein stability index
49 | KKFRTKSRTFAGEKSKREMYSRLK [W10F] | 3.47
50 | KKFRTKSRTLAGEKSKREMYSRLK [W10L] | 3.53
51 | KKFRTKSRTPAGEKSKREMYSRLK [W10P] | 3.55
52 | KKFRTKSRTRAGEKSKREMYSRLK [W10R] | 3.41
53 | KKFRTKSRTGAGEKSKREMYSRLK [W10G] | 3.92
54 | KKFRTKSRTMAGEKSKREMYSRLK [W10M] | 3.66
55 | KKFRTKSRTQAGEKSKREMYSRLK [W10Q] | 4.03
56 | KKFRTKSRTDAGEKSKREMYSRLK [W10D] | 3.9
57 | KKFRTKSRTHAGEKSKREMYSRLK [W10H] | 3.76
58 | KKFRTISRTWAGEKSKREMYSRLK [K6I] | 2.01
59 | KKFRTDSRTWAGEKSKREMYSRLK [K6D] | 3.57
60 | KKFRTSSRTWAGEKSKREMYSRLK [K6S] | 2.32
61 | KKFRTPSRTWAGEKSKREMYSRLK [K6P] | 2.93
62 | KKFRTHSRTWAGEKSKREMYSRLK [K6H] | 3.44
63 | KKFRTQSRTWAGEKSKREMYSRLK [K6Q] | 2.58
64 | KKFRTMSRTWAGEKSKREMYSRLK [K6M] | 2.91
65 | KKFRTTSRTWAGEKSKREMYSRLK [K6T] | 2.81
66 | KKFRTNSRTWAGEKSKREMYSRLK [K6N] | 2.92
67 | KKFRTGSRTWAGEKSKREMYSRLK [K6G] | 3.23
68 | KKFRTFSRTWAGEKSKREMYSRLK [K6F] | 2.37
69 | KKFRTLSRTWAGEKSKREMYSRLK [K6L] | 2.36
70 | KKFRTYSRTWAGEKSKREMYSRLK [K6Y] | 2.92
71 | KKFRTCSRTWAGEKSKREMYSRLK [K6C] | 2.71
72 | KKFRTVSRTWAGEKSKREMYSRLK [K6V] | 2.42

Row | Variant | protein stability index
73 | KKFRTASRTWAGEKSKREMYSRLK [K6A] | 1.88
74 | KKFRTKSRNWAGEKSKREMYSRLK [T9N] | 3.55
75 | KKFRTKSRLWAGEKSKREMYSRLK [T9L] | 2.74
76 | KKFRTKSRSWAGEKSKREMYSRLK [T9S] | 3.31
77 | KKFRTKSRRWAGEKSKREMYSRLK [T9R] | 2.29
78 | KKFRTKSRYWAGEKSKREMYSRLK [T9Y] | 3
79 | KKFRTKSRAWAGEKSKREMYSRLK [T9A] | 2.79
80 | KKFRTKSRHWAGEKSKREMYSRLK [T9H] | 2.29
81 | KKFRTKSRWWAGEKSKREMYSRLK [T9W] | 2.79
82 | KKFRTKSRVWAGEKSKREMYSRLK [T9V] | 2.55
83 | KKFRTKSRQWAGEKSKREMYSRLK [T9Q] | 2.67
84 | KKFRTKSRFWAGEKSKREMYSRLK [T9F] | 3.17
85 | KKFRTKSRPWAGEKSKREMYSRLK [T9P] | 3.12
86 | KKFRTKSRDWAGEKSKREMYSRLK [T9D] | 3.54
87 | KKFRTKSRKWAGEKSKREMYSRLK [T9K] | 3.48
88 | KKFRTKSRCWAGEKSKREMYSRLK [T9C] | 3.12
89 | KKFRQKSRTWAGEKSKREMYSRLK [T5Q] | 3.23
90 | KKFRYKSRTWAGEKSKREMYSRLK [T5Y] | 3.24
91 | KKFRWKSRTWAGEKSKREMYSRLK [T5W] | 3.02
92 | KKFRVKSRTWAGEKSKREMYSRLK [T5V] | 3.85
93 | KKFRSKSRTWAGEKSKREMYSRLK [T5S] | 3.71
94 | KKFRRKSRTWAGEKSKREMYSRLK [T5R] | 3.06
